Data on four substances can be found in publication PMC9181642.

The target of the assay is insulin receptor (mouse (endogenous in 3T3-L1)). Nature of the assay: co-IP; lysates of differentiated, serum-deprived 3T3-L1 adipocytes, untreated or treated with 100 nM Ang II for 60 min (for PKCβII also 10 µM DuP 753 for 30 min before Ang II); lysis in 50 mM Tris-HCl, 150 mM NaCl, 1% Nonidet P-40, 10% glycerol, 2 mM EDTA, pH 7.4; IR precipitated with anti-IR-β polyclonal antibody and protein A/G PLUS-Agarose; blots probed with anti-PKCα, -βI, -βII or -δ and quantified by densitometry.
Chain of insulin receptor (mouse (endogenous in 3T3-L1)) (P15208 28-1372): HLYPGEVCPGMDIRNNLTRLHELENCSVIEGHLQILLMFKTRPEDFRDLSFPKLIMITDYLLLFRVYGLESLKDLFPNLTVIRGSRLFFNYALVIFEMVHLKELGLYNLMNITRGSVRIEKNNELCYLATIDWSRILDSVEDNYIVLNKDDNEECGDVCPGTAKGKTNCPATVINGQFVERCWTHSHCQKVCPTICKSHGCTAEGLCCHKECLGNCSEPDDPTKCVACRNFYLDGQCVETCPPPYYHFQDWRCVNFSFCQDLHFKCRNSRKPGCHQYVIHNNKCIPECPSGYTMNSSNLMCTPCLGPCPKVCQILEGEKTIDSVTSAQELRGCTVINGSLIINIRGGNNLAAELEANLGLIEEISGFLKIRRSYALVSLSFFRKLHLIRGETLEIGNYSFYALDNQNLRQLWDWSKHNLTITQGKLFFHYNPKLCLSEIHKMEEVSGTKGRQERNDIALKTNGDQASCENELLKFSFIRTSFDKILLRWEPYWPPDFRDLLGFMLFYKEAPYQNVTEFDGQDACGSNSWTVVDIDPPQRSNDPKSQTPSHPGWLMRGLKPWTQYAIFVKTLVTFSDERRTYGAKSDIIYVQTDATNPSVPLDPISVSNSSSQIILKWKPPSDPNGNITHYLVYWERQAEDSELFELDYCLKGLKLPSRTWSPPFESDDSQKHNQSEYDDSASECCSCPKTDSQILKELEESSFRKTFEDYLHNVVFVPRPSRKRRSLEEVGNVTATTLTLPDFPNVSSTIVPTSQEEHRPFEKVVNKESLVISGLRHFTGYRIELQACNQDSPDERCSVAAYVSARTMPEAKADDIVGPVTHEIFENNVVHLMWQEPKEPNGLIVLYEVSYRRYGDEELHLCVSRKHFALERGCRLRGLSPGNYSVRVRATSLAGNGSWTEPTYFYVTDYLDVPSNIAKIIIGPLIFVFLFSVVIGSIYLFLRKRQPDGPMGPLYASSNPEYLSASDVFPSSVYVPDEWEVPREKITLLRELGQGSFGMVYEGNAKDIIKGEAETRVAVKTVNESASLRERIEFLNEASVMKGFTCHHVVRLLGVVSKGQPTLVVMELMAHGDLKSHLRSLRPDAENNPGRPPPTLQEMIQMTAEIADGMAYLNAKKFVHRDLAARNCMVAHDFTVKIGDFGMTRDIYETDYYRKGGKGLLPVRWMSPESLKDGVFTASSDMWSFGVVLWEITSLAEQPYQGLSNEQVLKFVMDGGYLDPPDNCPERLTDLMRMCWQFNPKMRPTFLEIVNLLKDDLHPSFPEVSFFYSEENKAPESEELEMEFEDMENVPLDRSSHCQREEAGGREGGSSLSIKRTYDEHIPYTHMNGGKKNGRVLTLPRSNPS

“PKCα (from UniProt P20444 1-672) (enzyme)”: the fold increase of the association with Ang II over control cells was determined as 2 fold. For “PKCβI (from UniProt P68404 1-671) (enzyme)” the value was 1.2 fold; for “PKCβII (from UniProt P68404-2 1-673) (enzyme)”, 4 fold. In the case of “PKCδ (from UniProt P28867 1-674) (enzyme)”, the fold increase of the association with Ang II over control cells turned out to be 1.5 fold.
